Data as given in article PMC5450233.
Substitutions are numbered along the chain they refer to. Names may count otherwise.

B1: GST–SKIP(1-310), Q8IWE5 D220A; F221A; G222A (protein)
chain: MEPGEVKDRILENISLSVKKLQSYFAACEDEIPAIRNHDKVLQRLCEHLDHALLYGLQDLSSGYWVLVVHFTRREAIKQIEVLQHVATNLGRSRAWLYLALNENSLESYLRLFQENLGLLHKYYVKNALVCSHDHLTLFLTLVSGLEFIRFELDLDAPYLDLAPYMPDYYKPQYLLDFEDRLPSSVHGSDSLSLNSFNSVTSTNLEWDDSAIAPSSEDYAAADVFPAVPSVPSTDWEDGDLTDTVSGPRSTASDLTSSKASTRSPTQRQNPFNEEPAETVSSSDTTPVHTTSQEKEEAQALDPPDACTEL
B2: GST–SKIP(1-310), Q8IWE5 E217A; D218A; Y219A (protein)
chain: B1 chain with E217A, D218A, Y219A, A220D, A221F, A222G
B3: GST–SKIP(1-310), Q8IWE5 D238A; G239A; D240A (protein)
chain: B1 chain with A220D, A221F, A222G, D238A, G239A, D240A
B4: GST–SKIP(1-310), Q8IWE5 W236A; E237A (protein)
chain: B1 chain with A220D, A221F, A222G, W236A, E237A

molecular target: HA–KLC2, O88448; experiment: GST pull-down, immunoblot (IB: HA) quantified; details: chain shown with the change; lysates of 293T cells co-expressing HA-KHC and HA-KLC2 (kinesin-1 tetramer); three independent experiments; parent: est. 1.0; read off a plot
Sequence (O88448 whole entry): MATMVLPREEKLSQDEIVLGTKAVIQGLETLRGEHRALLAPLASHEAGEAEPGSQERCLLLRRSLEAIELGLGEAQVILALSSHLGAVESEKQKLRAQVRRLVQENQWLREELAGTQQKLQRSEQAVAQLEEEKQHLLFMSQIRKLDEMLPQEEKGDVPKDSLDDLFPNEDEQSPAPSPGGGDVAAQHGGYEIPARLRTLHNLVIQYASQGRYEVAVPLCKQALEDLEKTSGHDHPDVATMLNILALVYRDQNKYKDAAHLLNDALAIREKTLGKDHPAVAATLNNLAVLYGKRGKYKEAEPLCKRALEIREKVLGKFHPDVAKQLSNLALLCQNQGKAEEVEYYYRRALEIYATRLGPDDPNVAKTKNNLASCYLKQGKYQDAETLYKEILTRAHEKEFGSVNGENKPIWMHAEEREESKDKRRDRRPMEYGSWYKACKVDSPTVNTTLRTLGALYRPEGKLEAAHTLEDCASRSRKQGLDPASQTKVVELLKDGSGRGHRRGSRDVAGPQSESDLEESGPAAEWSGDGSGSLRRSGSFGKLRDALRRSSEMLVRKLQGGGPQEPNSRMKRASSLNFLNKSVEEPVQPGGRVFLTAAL

Row | ratio to parent | Binder
1 | 0.47 | B1
2 | 0.63 | B2
3 | 0.89 | B3
4 | 0.95 | B4
